Reference: article doi:10.1101/501064 (bioRxiv, 2018)
Non-standard residues stand in square brackets, D forms with d. No end group written: not given here. pS = N[C@@H](COP(=O)(O)O)C(=O)O

B1: MCC 8-mer peptide spanning the C-terminus (PDZ-binding motif) of human MCC (peptide)
peptide: PHTNETSL
B2: MCC_SD 8-mer peptide (Ser to Asp at position -1) (peptide)
peptide: PHTNETDL
B3: MCC_SE 8-mer peptide (Ser to Glu at position -1) (peptide)
peptide: PHTNETEL
B4: phosphorylated MCC 8-mer peptide (phospho-Ser at position -1) (peptide)
peptide: PHTNET[pS]L

target: human Scribble PDZ1 domain (728-815) (human, UniProt Q14160 728-815); assay: ITC
Sequence (Q14160 728-815): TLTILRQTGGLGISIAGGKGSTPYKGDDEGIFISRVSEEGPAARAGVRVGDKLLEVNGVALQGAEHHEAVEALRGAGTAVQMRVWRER

| Binder | Kd |
| --- | --- |
| B1 | 7.7 µM |
| B2 | 7 µM |
| B3 | 7.2 µM |
| B4 | 6.1 µM |

target: T1, human Scribble PDZ3 domain (1005-1094) (human, UniProt Q14160 1005-1094); assay: ITC
T1 sequence (looked up): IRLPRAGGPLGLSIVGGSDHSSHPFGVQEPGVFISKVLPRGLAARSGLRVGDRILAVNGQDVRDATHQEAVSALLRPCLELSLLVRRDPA

| Binder | Kd |
| --- | --- |
| B1 | 5 µM |
| B2 | 3.4 µM |
| B3 | 4.5 µM |
| B4 | 3.7 µM |
